Test system: H1 or H9 human embryonic stem cells
Test: Activin A bioassay: differentiation of human embryonic stem cells to definitive endoderm, cell number and SOX17 intensity by high content analysis (96-well, four days);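 as to Cell Number average: Raw total cell count per well from high content imaging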;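 as to Sox 17 Intensity average: total fluorescence of the cell multiplied by cell area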
Format: cell-based
Outline: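 Read-out was cell count and integrated SOX17 immunofluorescence by high-content imaging, with each well divided by the mean of the 100 ng/ml activin A control. Over the four-day culture, test samples were given in DMEM:F12 with 0.5% FCS plus 20 ng/ml Wnt3a for the first two days and in 2% FCS alone for the last two. Cells were H1 or H9 hESC clusters grown on Matrigel.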

[1] = supernatant concentration 10x, assay dilution 1:20, assay plates #007, #009, #010
[2] = supernatant concentration 10x, assay dilution 1:20, control = R&D Sys Activin A 100 ng/ml on same plate
[3] = supernatant concentration 50x, assay dilution 1:20, assay plates #008, #009
[4] = supernatant concentration 50x, assay dilution 1:20, control = R&D Sys Activin A 100 ng/ml on same plate
[5] = concentrated supernatant (10x; ACTD3 4x), assay dilution 1:20
[6] = supernatant concentration 1x, assay dilution 1:20
[7] = supernatant concentration 10x, assay dilution 1:20
[8] = supernatant concentration 10x, assay dilution 1:40

| Molecule | Cell Number average [1] | Sox 17 Intensity average [1] | Sox 17 Intensity % of control [2] | Cell Number average [3] | Sox 17 Intensity average [3] | Sox 17 Intensity % of control [4] | Cell Number average [5] | Sox 17 Intensity average [5] | Sox 17 Intensity % of control (concentrated supernatant (10x; ACTD3 4x), assay dilution 1:20, control = R&D Sys Activin A 100 ng/ml) | Cell Number average [6] | Sox 17 Intensity average [6] | Sox 17 Intensity % of control (supernatant concentration 1x, assay dilution 1:20, control = R&D Sys Activin A 100 ng/ml on same plate) | Cell Number average [7] | Sox 17 Intensity average [7] | Cell Number average [8] | Sox 17 Intensity average [8] | Sox 17 Intensity % of control (supernatant concentration 10x, assay dilution 1:40, control = R&D Sys Activin A 100 ng/ml on same plate) |
| --- | --- | --- | --- | --- | --- | --- | --- | --- | --- | --- | --- | --- | --- | --- | --- | --- | --- |
| ACTN58: activin A variant peptide, SEQ ID 59 (protein) GLECDGKVNICCKKQSFGQTKDIGWNDWIIAPSGYHGGGCTGECPSHIAGTSGSSLSFHSTVINHYRMRGHSPWANLKSCCSPTKLRPMSMLYYDDGQNIIKKDIQNMKVEECGCT | 11078 | 6.70E+05 | 3.0% | 13214 | 3.78E+06 | 6.8% | – | – | – | – | – | – | – | – | – | – | – |
| ACTN73: activin A variant peptide, SEQ ID 74 (protein) GLECDGKVNICCKKQSFGQAKDIGWNDWIIAPSGYHGGGCSGECPSHIAGTSGSSLSFHSTVINHYRMRGHSPFANLKSCCSPTKLRPMSMLYYDDGQNIIKKDIQGMVVEECGCT | 10569 | 8.27E+05 | 3.7% | 16351 | 3.13E+06 | 5.7% | – | – | – | – | – | – | – | – | – | – | – |
| ACTN66: activin A variant peptide, SEQ ID 67 (protein) GLECDGKVNICCKKQMFGQAKDIGWNDWIIAPSGYHGGGCTGECPSHIAGTSGSSLSFHSTVINHYRMRGHSPWANLKSCCSPTKLRPMSMLYYDDGQNIIKKDIQNMVVEECGCT | 13360 | 4.84E+05 | 2.2% | 16460 | 3.39E+06 | 6.1% | – | – | – | – | – | – | – | – | – | – | – |
| ACTN67: activin A variant peptide, SEQ ID 68 (protein) GLECDGKVNICCKKQSFGQTKDIGWNDWIIAPSGYHGGGCSGECPSHIAGTSGSSLSFHSTVINHYRMRGHSPWANLKSCCSPTKLRPMSMLYYDDGQNIIKKDIQNMKVEECGCT | 12653 | 4.44E+05 | 2.0% | 14821 | 3.50E+06 | 6.3% | – | – | – | – | – | – | – | – | – | – | – |
| ACTN68: activin A variant peptide, SEQ ID 69 (protein) GLECDGKVNICCKKQSFGKAKDIGWNDWIIAPSGYHGGGCTGECPSHIAGTSGSSLSFHSTVINHYRMRGHSPFANLKSCCSPTKLRPMSMLYYDDGQNIIKKDIQGMKVEECGCT | 13395 | 1.43E+06 | 6.5% | 15926 | 1.83E+06 | 3.3% | – | – | – | – | – | – | – | – | – | – | – |
| ACTN70: activin A variant peptide, SEQ ID 71 (protein) GLECDGKVNICCKKQLFGQAKDIGWNDWIIAPSGYHGGGCSGECPSHIAGTSGSSLSFHSTVINHYRMRGHSPVANLKSCCSPTKLRPMSMLYYDDGQNIIKKDIQGMVVEECGCT | 12551 | 9.67E+05 | 4.4% | 16071 | 3.20E+06 | 5.8% | – | – | – | – | – | – | – | – | – | – | – |
| ACTN83: activin A variant peptide, SEQ ID 84 (protein) GLECDGKVNICCKKQSFGRAKDIGWNDWIIAPSGYHGGGCTGECPSHIAGTSGSSLSFHSTVINHYRMRGHSPFANLKSCCSPTKLRPMSMLYYDDGQNIIKKDIQGMKVEECGCT | 12084 | 5.39E+05 | 2.4% | 15829 | 9.01E+06 | 16.3% | – | – | – | – | – | – | – | – | – | – | – |
| ACTN80: activin A variant peptide, SEQ ID 81 (protein) GLECDGKVNICCKKQSFGQTKDIGWNDWIIAPSGYHGGGCSGECPSHIAGTSGSSLSFHSTVINHYRMRGHSPWANLKSCCAPTKLRPMSMLYYDDGQNIIKKDIQNMKVEECGCV | 9898 | 4.08E+05 | 1.8% | 14686 | 3.52E+06 | 6.4% | – | – | – | – | – | – | – | – | – | – | – |
| ACTN86: activin A variant peptide, SEQ ID 87 (protein) GLECDGKVNICCKKQSFGKTKDIGWNDWIIAPSGYHGGGCSGECPSHIAGTSGSSLSFHSTVINHYRMRGHSPWANLKSCCSPTKLRPMSMLYYDDGQNIIKKDIQNMVVEECGCT | 11821 | 7.45E+05 | 3.4% | 17034 | 2.34E+06 | 4.2% | – | – | – | – | – | – | – | – | – | – | – |
| ACTN34: activin A variant peptide, SEQ ID 35 (protein) GLECDGKVNYCCKKQLFVSFKDIGWNDWIIAPSGYHANHCTGKCPSHIAGTSGSSLSFHSTVINHYRMRGHSPFSDLGSCCVPTKLRPMSMLYYDDGQNIIKKDIQNMIVEECGCS | 10063 | 5.69E+07 | 257.4% | 12163 | 1.47E+08 | 266.9% | 11794 | 8.08E+07 | 185% | – | – | – | – | – | – | – | – |
| ACTN2: activin A variant peptide, SEQ ID 3 (protein) GLECDGKVNLCCKKQNFVSFKDIGWNDWIIAPSGYHANECTGKCPSHIAGTSGSSLSFHSTVINHYRMRGHSPFSDLGSCCIPTKLRPMSMLYYDDGQNIIKKDIQNMIVEECGCS | – | – | 12.5% | – | – | – | – | – | – | 4057 | 1.756E+07 | 9.5% | 2965 | 2.299E+07 | 2232 | 1.280E+07 | 7.0% |
| ACTN37: activin A variant peptide, SEQ ID 38 (protein) GLECDGKVNLCCKKQDFVSFKDIGWNDWIIAPSGYHANRCSGKCPSHIAGTSGSSLSFHSTVINHYRMRGHSPFSDMGACCIPTKLRPMSMLYYDDGQNIIKKDIQNMIVEECGCS | 3957 | 1.35E+06 | 6.1% | 2902 | 5.89E+06 | 10.6% | – | – | – | – | – | – | – | – | – | – | – |

From patent US20110091971A1, “Differentiation of Pluripotent Stem Cells” (priority 2008, published 2011)
